pKd: −log10 of the molar value.

The source of these data is US20240400618A1.

For this assay, the target named is pxEBN4-ACE2-AAA-His (human) (UniProt Q9BYF1).

As a reminder, the pKd is the Kd on a negative log10 scale, so that one unit is a factor of ten. Higher therefore signals a low Kd. Turning to “UK, Alpha, pxENB9-FLS (from UniProt P0DTC2 15-1213) (ligand)”, the pKd is 11.94. The result for “SA, Beta, pxENB9-FLS-B.1.351 (from UniProt P0DTC2 15-1213) (ligand)” reads 8.80.
